Experimental data as given in USRE38424E1 (The United States of America as represented by the …, priority 1994, dated 2004).
Like-named read-outs stand apart in the source and are kept apart here.

Conditions: for Duration of Neutropenia in Neutropenic Cycles, Median / Duration of Neutropenia in Neutropenic Cycles, Range / Nadirs in Neutropenic Cycles, Median / Nadirs in Neutropenic Cycles, Range / Duration of Neutropenia in Neutropenic Cycles, Mean / Nadirs in Neutropenic Cycles, Mean / Day of Onset of Neutropenia in Neutropenic Cycles, Median / Day of Onset of Neutropenia in Neutropenic Cycles, Range / Day of Onset of Neutropenia in Neutropenic Cycles, Mean / Nadir (all cycles), Median / Nadir (all cycles), Range / Nadir (all cycles), Mean: taxol 250 mg/m^2/21 days
Excerpt: A total of 47 patients were included in this study. All patients had recurrent advanced stage epithelial ovarian cancer confirmed on histologic review at the Laboratory of Pathology, National Cancer Institute (NCI). Borderline, mixed, and germ cell histologies were excluded.
Pretreatment evaluation consisted of a physical examination, laboratory studies with CA-125, radiographic evaluation by CT scan, baseline electromyogram with nerve conduction velocity studies (EMG/NCV), creatinine clearance, chest radiograph, and EKG. On-study staging was completed within two weeks of starting therapy. Physical examination and laboratory evaluations were repeated with every cycle, except for CBC which was evaluated twice weekly. Patients underwent restaging every two cycles (i.e., every 6 weeks), which included the repetition of any radiographic studies that were abnormal upon entry. EMG/NCV studies were repeated as indicated to determine the presence of any progressive neurologic toxicity.
The G-CSF was supplied to the Division of Cancer Treatment by Amgen, Inc. (Thousand Oaks, Calif.). This G-CSF administration continued until the absolute granulocyte count of the patient was greater than 1500/μl for two consecutive days after the nadir (i.e., the total count for the two days was at least 3000/μl ) or until the total white blood cell count was greater than 30,000/μl. Patients with responding disease or stable disease continued on the study and were reevaluated at two cycle intervals.
Patients manifesting second or third degree heart block had remaining cycles given in the intensive care unit with appropriate interventions. Antiemetics were given as needed.
More specifically, this was undertaken by increasing the dose of G-CSF administered on the next treatment cycle.
The particulars pertaining to the flexible G-CSF dosage regimen are as follows. […] The dose of G-CSF was reduced by 5 μg/kg/day if severe bone pain occurred at these higher G-CSF dosage levels, i.e., at levels greater than or equal to 10 μg/kg/day.

B1: G-CSF: granulocyte colony-stimulating factor, available from Amgen, Inc. (protein, UniProt P09919 31-207, looked up)
Granulocyte …: TPLGPASSLPQSFLLKCLEQVRKIQGDGAALQEKLVSECATYKLCHPEELVLLGHSLGIPWAPLSSCPSQALQLAGCLSQLHSGLFLYQGLLQALEGISPELGPTLDTLQLDVADFATTIWQQMEELGMAPALQPTQGAMPAFASAFQRRAGGVLVASHLQSFLEVSYRVLRHLAQP
- Duration of Neutropenia in Neutropenic Cycles, Median (10 μg/kg G-CSF, 49 cycles): 1 days
- Duration of Neutropenia in Neutropenic Cycles, Range (10 μg/kg G-CSF, 49 cycles): 1 to 4 days
- Nadirs in Neutropenic Cycles, Median (10 μg/kg G-CSF, 49 cycles): 162
- Nadirs in Neutropenic Cycles, Range (10 μg/kg G-CSF, 49 cycles): 0-494
- Duration of Neutropenia in Neutropenic Cycles, Mean (10 μg/kg G-CSF, 49 cycles, ± 0.7 on wrapped line): 1 days
- Nadirs in Neutropenic Cycles, Mean (10 μg/kg G-CSF, 49 cycles, ± 158 on wrapped line): 178
- Day of Onset of Neutropenia in Neutropenic Cycles, Median (10 μg/kg G-CSF, 54 cycles): 7 days
- Day of Onset of Neutropenia in Neutropenic Cycles, Range (10 μg/kg G-CSF, 54 cycles): 5 to 9 days
- Day of Onset of Neutropenia in Neutropenic Cycles, Mean (10 μg/kg G-CSF, 54 cycles, ± 0.8 on wrapped line): 7 days
- Nadir (all cycles), Median (10 μg/kg G-CSF, 130 cycles): 865
- Nadir (all cycles), Range (10 μg/kg G-CSF, 130 cycles): 0-6232
- Nadir (all cycles), Mean (10 μg/kg G-CSF, 130 cycles, ± 1636 on wrapped line): 1341
- Day of Onset of Neutropenia in Neutropenic Cycles, Median (20 μg/kg G-CSF, 20 cycles): 7 days
- Day of Onset of Neutropenia in Neutropenic Cycles, Range (20 μg/kg G-CSF, 20 cycles): 6 to 11 days
- Duration of Neutropenia in Neutropenic Cycles, Median (20 μg/kg G-CSF, 20 cycles): 1 days
- Duration of Neutropenia in Neutropenic Cycles, Range (20 μg/kg G-CSF, 20 cycles): 1 to 5 days
- Nadirs in Neutropenic Cycles, Median (20 μg/kg G-CSF, 20 cycles): 191
- Nadirs in Neutropenic Cycles, Range (20 μg/kg G-CSF, 20 cycles): 0-493
- Duration of Neutropenia in Neutropenic Cycles, Mean (20 μg/kg G-CSF, 20 cycles, ± 0.9 on wrapped line): 1 days
- Day of Onset of Neutropenia in Neutropenic Cycles, Mean (20 μg/kg G-CSF, 20 cycles, ± 1.1 on wrapped line): 7 days
- Nadirs in Neutropenic Cycles, Mean (20 μg/kg G-CSF, 20 cycles, ± 155 on wrapped line): 200
- Nadir (all cycles), Median (20 μg/kg G-CSF, 42 cycles): 626
- Nadir (all cycles), Range (20 μg/kg G-CSF, 42 cycles): 0-6536
- Nadir (all cycles), Mean (20 μg/kg G-CSF, 42 cycles, ± 1430 on wrapped line): 1204
- Patients in whom the G-CSF dose is poorly tolerated (in vivo): about 5%
- Patients whose G-CSF doses were modified for bone pain (phase II): two
- Bone Pain, G-CSF DR (dose reduction) (phase II, 47 patients): 3 (6) No. (%)
